Measurements as given in patent US20100092488A1.

Biological target: T1, MK (endogenous, in the culture of CD4-positive T cells from wild-type murine spleens with APC) (UniProt P12025)
T1 sequence (looked up): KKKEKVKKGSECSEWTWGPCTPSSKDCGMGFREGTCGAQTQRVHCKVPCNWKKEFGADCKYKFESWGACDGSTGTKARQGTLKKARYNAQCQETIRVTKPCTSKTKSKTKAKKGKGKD
Test: cell-based or functional assay

proportion of CD4-positive, CD25-positive T cells among the CD4-positive T cells (flow cytometer; IP-13 30 µg/mL, MOG35-55 and APC, five days): 4%
B1: anti-MK antibody (IP-13) (antibody, from another filing, V domains shown)
VH: EVQLQQSGPELVKPGASVKIPCKASGYTFTDYNMGWVKQSHGKSLEWIGDINPNNGGTIYNQKFKGKATLTVDKSSSTAYMELRSLTSEDTAVYYCARWSYSNPYFDYWGQGTTLTVSS
VL: SIVMTQTPNFLLVSAGDRVTITCKASQSVSNDVSWYQQKPGQSPKLLIYYASNLYTGVPDRFTGSGYGTDFTFTISTVQAEDLAVYFCQQDYSSPWTFGGGTKLEIK
